Test results published in patent publication US20080219974A1 (published 2008).
Changes are numbered by the printed parent chain. Names may count otherwise.

B1: H0L0_IgG1_S239D/I332E (antibody, V domains shown)
VH: QVQLQQSGAELARPGASVKLSCKASGYTFTPYWMQWVKQRPGQGLEWIGSIFPGDGDTRYSQKFKGKATLTADKSSSTAYMQLSILAFEDSAVYYCARGLRRGGYYFDYWGQGTTLTVSS
VL: DIVMTQSHKFMSTSVGDRVSITCKASQDVNTAVAWYQQKPGQSPKLLIYSASNRYTGVPDRITGSGSGTDFTFTISSVQAEDLALYYCQQHYSTPFTFGSGTKLEIK
B2: HM1.24_H1.2 heavy chain variant with HM1.24_L4 light chain (antibody, V domains shown)
VH: QVQLVQSGAEVKKPGASVKVSCKASGYTFTPYWMQWVRQAPGQGLEWMGSIFPGSGDTRYSQSFQGQVTISADKSISTAYMELSRLRSDDTAVYYCARGLRRGGYYFDYWGQGTLVTVSS
VL: DIVMTQSPLSLPVTLGQPASISCKASQDVNTAVAWYLQKPGKSPKLLIYSASNRYTGVPDRITGSGSGTDFTLKISRVEAEDVGVYYCQQHYSTPFTFGSGTKLEIKR
B3: HM1.24_H0L0_IgG1_WT (antibody, V domains shown)
VH: B1 VH
VL: DIVMTQSHKFMSTSVGDRVSITCKASQDVNTAVAWYQQKPGQSPKLLIYSASNRYTGVPDRITGSGSGTDFTFTISSVQAEDLALYYCQQHYSTPFTFGSGTKLEIKR
B4: HM1.24_H1L4 (antibody, V domains shown)
VH: B2 VH with S55D
VL: B2 VL
B5: HM1.24_H1L2 (antibody, V domains shown)
VH: B2 VH with S55D
VL: DIVMTQSPSSLSASVGDRVTITCQASQDVNTAVAWYQQKPDQSPKLLIYSASNRYTGVPDRITGSGSGTDFTLTISSLQAEDVAVYYCQQHYSTPFTFGSGTKLEIKR
B6: HM1.24_H2L4 (antibody, V domains shown)
VH: EVQLVESGGGLVKPGGSLRLSCAASGYTFTPYWMQWVRQAPGKGLEWMGSIFPGDGDTRYSQSFQGQVTISADKSISTAYMELSSLRSEDTAVYYCARGLRRGGYYFDYWGQGTLVTVSS
VL: B2 VL
B7: HM1.24_H2L2 (antibody, V domains shown)
VH: B6 VH
VL: B5 VL
B8: H2L3_Hybrid_S239D/I332E (antibody, V domains shown)
VH: B6 VH
VL: B5 VL with S9P, S10T, A13L, V15P, D17E, I21L, T22S, Q24R, A80P, V83F
B9: H1L3_Hybrid_S239D/I332E (antibody, V domains shown)
VH: B2 VH with S55D
VL: B5 VL with S9P, S10T, A13L, V15P, D17E, I21L, T22S, Q24R, A80P, V83F
B10: HM1.24_H2.1 heavy chain variant with HM1.24_L4 light chain (antibody, V domains shown)
VH: B6 VH with D55E
VL: B2 VL
B11: HM1.24_H1.1_L2_Hybrid_S239D/I332E (antibody, V domains shown)
VH: B2 VH with S55E
VL: B5 VL
B12: HM1.24_H2.3 heavy chain variant with HM1.24_L4 light chain (antibody, V domains shown)
VH: B6 VH with G56S
VL: B2 VL
B13: HM1.24_H1.4 heavy chain variant with HM1.24_L4 light chain (antibody, V domains shown)
VH: B2 VH with S55D, G56A
VL: B2 VL
B14: HM1.24_H1.3 heavy chain variant with HM1.24_L4 light chain (antibody, V domains shown)
VH: B2 VH with S55D, G56S
VL: B2 VL
B15: HM1.24_H1.2_L2_Hybrid_S239D/I332E (antibody, V domains shown)
VH: B2 VH
VL: B5 VL
B16: HM1.24_H1.1 heavy chain variant with HM1.24_L4 light chain (antibody, V domains shown)
VH: B2 VH with S55E
VL: B2 VL
B17: HM1.24_H1.3_L2_Hybrid_S239D/I332E (antibody, V domains shown)
VH: B2 VH with S55D, G56S
VL: B5 VL
B18: HM1.24_H2.4 heavy chain variant with HM1.24_L4 light chain (antibody, V domains shown)
VH: B6 VH with G56A
VL: B2 VL
B19: HM1.24_H1.4_L2_Hybrid_S239D/I332E (antibody, V domains shown)
VH: B2 VH with S55D, G56A
VL: B5 VL

Target: T1, His-tagged HM1.24 antigen, residues N49-A163 of the extracellular domain (UniProt Q10589 49-163)
T1 chain: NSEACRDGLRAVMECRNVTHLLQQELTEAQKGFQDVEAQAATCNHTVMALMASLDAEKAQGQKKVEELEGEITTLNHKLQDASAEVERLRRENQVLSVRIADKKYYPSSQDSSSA
Assay: Biacore

In order of rising Kd:
1. B5  26.9 pM
2. B4  38.1 pM
3. B3  51.1 pM
4. B1  52.2 pM
5. B2  62 pM

Target: T2, Human HM1.24 on RPMI 8226 multiple myeloma cells (UniProt Q10589 1-161)
T2 chain: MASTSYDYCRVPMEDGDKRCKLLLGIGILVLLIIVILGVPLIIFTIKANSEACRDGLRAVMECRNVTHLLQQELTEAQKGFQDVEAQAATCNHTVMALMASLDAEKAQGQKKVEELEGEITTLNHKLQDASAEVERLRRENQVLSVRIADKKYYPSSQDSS
Assay: flow cytometry

In order of falling EC50:
1. B8  13100 pM
2. B7  5830 pM
3. B6  3550 pM
4. B9  3260 pM
5. B5  2520 pM
6. B3  2460 pM
7. B1  2220 pM
8. B4  1890 pM

Target: T1, His-tagged HM1.24 antigen, residues …
Assay: Biacore
Remark: another data set of the same source

In order of rising Kd:
1. B3  53.7 pM
2. B4  57.2 pM
3. B5  57.4 pM
4. B1  63.7 pM
5. B2  71.1 pM

Target: T1, His-tagged HM1.24 antigen, residues …
Assay: Biacore
Remark: another data set of the same source

In order of rising koff:
1. B2  0.00203 s⁻¹
2. B16  0.00251 s⁻¹
3. B14  0.00261 s⁻¹
4. B10  0.00266 s⁻¹
5. B13  0.00298 s⁻¹
6. B17  0.003 s⁻¹
7. B5  0.00318 s⁻¹
8. B11  0.0032 s⁻¹
9. B4  0.00352 s⁻¹
10. B19  0.00352 s⁻¹
11. B15  0.00371 s⁻¹
12. B12  0.00374 s⁻¹
13. B18  0.004 s⁻¹
14. B6  0.00418 s⁻¹

Target: T1, His-tagged HM1.24 antigen, residues …
Assay: Biacore
Remark: another data set of the same source

In order of rising koff:
1. B16  0.00201 s⁻¹
2. B11  0.00206 s⁻¹
3. B10  0.00218 s⁻¹
4. B14  0.00229 s⁻¹
5. B2  0.0023 s⁻¹
6. B5  0.00241 s⁻¹
7. B4  0.00243 s⁻¹
8. B19  0.00274 s⁻¹
9. B17  0.00279 s⁻¹
10. B18  0.0029 s⁻¹
11. B13  0.00298 s⁻¹
12. B6  0.00299 s⁻¹
13. B12  0.00327 s⁻¹
14. B15  0.0039 s⁻¹
